We go through one molecule from paper PMC8933513 (2022).

Holding throughout (experiment): SPR
(In general: In SPR one partner is held on a chip, and binding of the other changes the refractive index at the surface.)

Assay [1] has as its target hAPN ectodomain W429A mutant (human, UniProt P15144 62-963, W429A).
Assay [2] has as its target hAPN ectodomain E742A mutant (human, UniProt P15144 62-963, E742A).
Assay [3] concerns the target hAPN ectodomain Y316A mutant (human, UniProt P15144 62-963, Y316A).
Assay [4] addresses hAPN ectodomain E745A mutant (human, UniProt P15144 62-963, E745A).
The target of assay [5] is T1, porcine aminopeptidase N (pAPN) ectodomain, residues 58-961, wild type (pig, UniProt P15145 58-961).
T1 chain: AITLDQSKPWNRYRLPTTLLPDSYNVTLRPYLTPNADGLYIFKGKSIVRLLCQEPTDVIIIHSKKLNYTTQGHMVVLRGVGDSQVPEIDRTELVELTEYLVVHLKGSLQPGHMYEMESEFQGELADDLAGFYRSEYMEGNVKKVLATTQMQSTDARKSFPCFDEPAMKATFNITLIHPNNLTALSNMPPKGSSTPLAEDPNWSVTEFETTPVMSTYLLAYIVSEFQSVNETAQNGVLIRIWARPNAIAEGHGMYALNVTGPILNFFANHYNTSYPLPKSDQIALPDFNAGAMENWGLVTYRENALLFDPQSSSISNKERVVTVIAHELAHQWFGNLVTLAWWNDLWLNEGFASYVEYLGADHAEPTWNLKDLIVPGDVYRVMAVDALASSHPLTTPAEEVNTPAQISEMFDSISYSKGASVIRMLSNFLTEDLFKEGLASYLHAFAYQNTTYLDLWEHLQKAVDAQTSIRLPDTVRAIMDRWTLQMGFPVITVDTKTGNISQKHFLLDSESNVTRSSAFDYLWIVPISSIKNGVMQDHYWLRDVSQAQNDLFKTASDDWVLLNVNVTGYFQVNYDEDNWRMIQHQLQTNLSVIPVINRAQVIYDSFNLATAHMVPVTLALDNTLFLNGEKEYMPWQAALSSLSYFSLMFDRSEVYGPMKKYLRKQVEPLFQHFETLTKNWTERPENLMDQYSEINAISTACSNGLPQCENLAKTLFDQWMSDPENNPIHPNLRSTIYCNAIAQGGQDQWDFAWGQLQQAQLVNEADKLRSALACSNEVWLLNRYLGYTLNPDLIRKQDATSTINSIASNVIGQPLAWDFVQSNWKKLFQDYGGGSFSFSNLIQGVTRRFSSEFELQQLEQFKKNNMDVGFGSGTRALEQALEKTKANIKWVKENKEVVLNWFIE

Assay [6] deals with T2, pAPN ectodomain K374A mutant (pig, UniProt P15145 58-961, K374A).
T2 sequence: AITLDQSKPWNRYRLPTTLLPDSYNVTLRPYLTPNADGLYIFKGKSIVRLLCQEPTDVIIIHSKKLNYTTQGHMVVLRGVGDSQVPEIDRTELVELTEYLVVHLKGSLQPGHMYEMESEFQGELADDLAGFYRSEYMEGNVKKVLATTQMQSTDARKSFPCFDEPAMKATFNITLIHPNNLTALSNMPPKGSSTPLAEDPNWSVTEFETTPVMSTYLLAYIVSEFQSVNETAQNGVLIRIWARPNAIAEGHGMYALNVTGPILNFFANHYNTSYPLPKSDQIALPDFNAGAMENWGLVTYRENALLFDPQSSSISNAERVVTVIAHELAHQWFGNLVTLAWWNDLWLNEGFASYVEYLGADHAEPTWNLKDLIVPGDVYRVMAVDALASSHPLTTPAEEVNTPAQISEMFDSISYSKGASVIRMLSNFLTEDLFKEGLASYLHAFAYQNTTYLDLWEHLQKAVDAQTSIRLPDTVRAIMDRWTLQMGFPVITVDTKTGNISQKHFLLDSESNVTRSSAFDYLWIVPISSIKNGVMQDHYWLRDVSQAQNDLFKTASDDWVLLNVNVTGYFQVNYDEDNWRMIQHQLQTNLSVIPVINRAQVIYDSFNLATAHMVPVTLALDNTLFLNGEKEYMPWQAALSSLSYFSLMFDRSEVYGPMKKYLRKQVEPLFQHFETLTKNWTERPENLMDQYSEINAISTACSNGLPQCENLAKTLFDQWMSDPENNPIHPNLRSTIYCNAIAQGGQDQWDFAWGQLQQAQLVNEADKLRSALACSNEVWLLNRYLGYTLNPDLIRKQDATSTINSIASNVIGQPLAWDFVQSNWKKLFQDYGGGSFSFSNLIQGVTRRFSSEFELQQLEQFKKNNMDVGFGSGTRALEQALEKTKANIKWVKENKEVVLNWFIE

As usually defined, the Kd is the free concentration of one partner at which half of the binding sites on the other are occupied at equilibrium, for simple one-to-one binding.

Sequence of hAPN ectodomain W429A mutant (P15144 62-963 W429A): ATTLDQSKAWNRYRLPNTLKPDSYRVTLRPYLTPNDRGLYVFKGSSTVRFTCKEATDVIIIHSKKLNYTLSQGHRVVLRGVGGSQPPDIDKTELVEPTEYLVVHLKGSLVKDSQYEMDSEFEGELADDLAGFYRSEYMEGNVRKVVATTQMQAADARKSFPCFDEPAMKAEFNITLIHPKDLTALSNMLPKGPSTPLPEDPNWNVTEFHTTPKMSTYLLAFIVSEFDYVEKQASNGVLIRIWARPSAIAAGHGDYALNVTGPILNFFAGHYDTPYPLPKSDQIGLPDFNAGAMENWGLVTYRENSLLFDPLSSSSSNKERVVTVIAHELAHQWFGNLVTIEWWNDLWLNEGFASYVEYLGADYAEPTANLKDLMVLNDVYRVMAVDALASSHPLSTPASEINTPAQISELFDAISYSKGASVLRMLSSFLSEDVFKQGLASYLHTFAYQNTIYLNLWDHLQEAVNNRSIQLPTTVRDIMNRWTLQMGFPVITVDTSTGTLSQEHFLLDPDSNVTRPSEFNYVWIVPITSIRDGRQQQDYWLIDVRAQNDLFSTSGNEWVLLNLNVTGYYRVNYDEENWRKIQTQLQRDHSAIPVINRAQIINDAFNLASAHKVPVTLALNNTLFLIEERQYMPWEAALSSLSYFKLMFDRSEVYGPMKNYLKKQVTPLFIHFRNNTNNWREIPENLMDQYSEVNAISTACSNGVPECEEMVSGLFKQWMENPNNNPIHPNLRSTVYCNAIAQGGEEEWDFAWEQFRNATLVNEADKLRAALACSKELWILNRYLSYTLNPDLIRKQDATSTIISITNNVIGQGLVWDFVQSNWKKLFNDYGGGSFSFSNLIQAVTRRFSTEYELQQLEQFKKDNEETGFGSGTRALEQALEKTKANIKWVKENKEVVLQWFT
Sequence of hAPN ectodomain Y316A mutant (P15144 62-963 Y316A): as the sequence (P15144 62-963 W429A) above, with Y255A, A368W counted along it
Sequence of hAPN ectodomain E745A mutant (P15144 62-963 E745A): as the sequence (P15144 62-963 W429A) above, with A368W, E684A counted along it

B1: PDCoV spike (S) protein receptor binding domain (RBD), residues 300-419, wild type (domain or fragment)
chain: PKLPELEVVQLNISAHMDFGEARLDSVTINGNTSYCVTKPYFRLETNFMCTGCTMNLRTDTCSFDLSAVNNGMSFSQFCLSTESGACEMKIIVTYVWNYLLRQRLYVTAVEGQTHTGTTS
With B1, the Kd in assay [1] was 127 µM; in assay [2], 13.7 µM; in assay [3], 37.1 µM; in assay [4] it was 3.06 µM; in assay [5] it was 44.2 µM; in assay [6], > 1000 µM.
